Reference: patent US20160348147A1, “SYSTEMS AND DEVICES FOR PROTEASE DETECTION BASED ON ENGINEERED POLYMERS AND BIOPOLYMERS AND METHODS OF USE” (DUKE UNIVERSITY, priority 2014, published 2016)

How the values were obtained:
Assay type in all cases: biochemical
[1] = molecular target: T1, Human MMP-1 catalytic domain (Homo sapiens, UniProt P03956); assay: Time-dependent aggregation (OD350) of ELP-substrate fusion with MMP-1 in proteolysis buffer; details: 50 ng/mL MMP-1, without the inhibitor, proteolysis buffer, 40° C., 100 μM
T1 construct: Human MMP-1 catalytic domain (recombinant, produced in E. coli, 19.9 kDa, >95% purity); purchased Enzo Life Sciences (Farmingdale, N.Y.); host or cells: E. coli
T1 sequence (P03956 100-269 limits assumed): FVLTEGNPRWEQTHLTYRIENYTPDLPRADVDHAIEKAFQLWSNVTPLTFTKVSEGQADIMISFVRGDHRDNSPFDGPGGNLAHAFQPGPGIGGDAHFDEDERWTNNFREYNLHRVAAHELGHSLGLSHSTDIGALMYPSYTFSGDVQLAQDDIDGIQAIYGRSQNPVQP

[2] = test system: endogenous MMP-1 in human serum; assay: Time-dependent aggregation (OD350) of ELP-substrate fusion in diluted human serum (40%); details: diluted serum with no added MMP-1, 37° C.
Description: (§1) We performed the proteolysis reactions either in 100% protease buffer or in a mixture of human serum and buffer (40% (v/v) serum, 50% (v/v) buffer, 10% (v/v) ELP-substrate solution in water). The proteolysis buffer (100 mM HEPES, CaCl2 20 mM, MgCl2 1.0 mM, ZnCl2 100 μM, NaCl 0.5 M for diluted serum and 0.1 M for buffer solutions) was made experimentally in our lab based on previously published assays (Patterson, J. & Hubbell, J. A. Biomaterials 2010, 31, 7836-7845; Turk, B. E. et al., Nature Biotechnology 2001, 19, 661-667; Lowe, S. B. et al., Acs Nano 2012, 6, 851-857). We investigated proteolysis in two ways. In the first approach, we incubated solutions of the ELP-substrate fusion with MMP-1 (100 ng/mL) for 12 h at 40° C. temperature and measured the optical density at 350 nm (OD350) before and after the incubation. In the second approach, we incubated the ELP-substrate fusion with varying concentrations of MMP-1 (0.02 ng/mL to 200 ng/mL) in buffer or in diluted human serum, at 40° C. or 37° C. respectively, a temperature that is above the CMT of the ELP, and monitored the changes OD350 as a function of time (kinetic study). For the kinetic studies, we added the enzyme to the solution after the optical density of the solution reached a steady-state value and repeated the experiments at least three times. […]

MMP-1 [3] = molecular target: T2, MMP-1 (Homo sapiens, UniProt P03956); assay: Mass spectrometry of ELP-substrate fusion before and after incubation with MMP-1; details: 100 μM polypeptide, 100 ng/mL MMP-1, 2 h at 25° C., proteolysis buffer
T2 construct: Human MMP-1 catalytic domain (recombinant, produced in E. coli, 19.9 kDa, >95% purity); purchased Enzo Life Sciences (Farmingdale, N.Y.); host or cells: E. coli
T2 sequence (P03956 100-269 limits assumed): T1 sequence (P03956 100-269 limits assumed)
Description: We confirmed the purity and molecular weight of the purified peptides by electrophoresis (10-20% gradient […] SDS-PAGE, Thermo Scientific, CA) and by matrix-assisted laser desorption/ionization mass spectrometry. Mass spectrometry samples were prepared by mixing the enzymatic reaction product with sinapinic acid in 1:10 ratio. 1 μL of the sample/matrix mixture was then loaded on the grid and the measurements were performed on a Voyager-DE-Pro instrument (Applied Biosystems, Germany). To determine the concentration of the ELP-substrate fusion solutions we used a calculated extinction coefficient (Gill, S. C. & Vonhippel, P. H. Analytical Biochemistry 1989, 182, 319-326) or lyophilized the polypeptide solution. We studied the thermal behavior of the ELP-substrate fusion constructs in both proteolysis buffer (see below) and diluted human serum in the presence and absence of MMP-1 using optical turbidimetry on a temperature-programmed UV-vis spectrometer (Cary 300, Agilent Technologies). To characterize the size of the micelles and aggregates, we used single angle dynamic light scattering (DLS; DynaPro, Protein Solution).
We used mass spectrometry to examine the cleavage of the MMP-1 substrate peptide in the ELP-substrate fusion by measuring the molecular weight of the polypeptides prior to, and after incubation with MMP-1. […]

MMP-1 [4] = molecular target: T2, MMP-1; assay: Thermal behavior (OD350, DLS) after incubation with MMP-1; details: MMP-1 100 ng/mL, 12 h at 40° C.
Description: as §1

## M(GVGVP)60GDGQVPMSMRGGDDEGQQDDEEGY (MGVGVPGDGQVPMSMRGGDDEGQQDDEEGY) [ELP-substrate fusion, recombinant polypeptide: ELP fused to MMP-1 substrate and charged hydrophilic peptide]
[1]
  aggregation time: less than 50 min
[2]
  aggregation time: ~350 min
MMP-1 [3]
  cleavage of the MMP-1 substrate peptide (mass spectrometry): most of the 1.8 kDa MMP-sensitive peptide is cleaved off
MMP-1 [4]; 100 μM
  temperature above which large aggregates form after incubation with MMP-1: ≈ 37 °C
MMP-1 [4]; DLS at 38° C.
  particle diameter after incubation with MMP-1: over a micron
